For 1 molecule, Kd results are on record in article PMC6755802 (2019).

The target of this assay is T1, IL-2Rβ ectodomain (SPR, Figure 4A) (human, UniProt P14784 27-240).
T1 chain: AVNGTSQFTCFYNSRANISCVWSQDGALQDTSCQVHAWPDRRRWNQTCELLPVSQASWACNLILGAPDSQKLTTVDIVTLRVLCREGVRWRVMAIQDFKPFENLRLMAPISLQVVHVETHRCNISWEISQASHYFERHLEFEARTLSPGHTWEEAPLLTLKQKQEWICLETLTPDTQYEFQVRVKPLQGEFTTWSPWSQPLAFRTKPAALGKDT
Description: SPR.

B1: Super-2 (ligand)
chain: APTSSSTKKTQLQLEHLLLDLQMILNGINNYKNPKLTRMLTFKFYMPKKATELKHLQCLEEELKPLEEVLNLAQSKNFHFDPRDVVSNINVFVLELKGSETTFMCEYADETATIVEFLNRWITFCQSIISTLT
As for B1, binding was put at a Kd of 3.3 nM.
